{"source": "paper PMC6965642", "about": "“The novel missense mutation Met48Lys in FKBP22 changes its structure and functions” (Scientific Reports, 2020)", "molecules": {"B1": {"name": "recombinant human wild type FKBP22 (FK506 Binding Protein 22 kDa) (enzyme)", "chain": "LIPEPEVKIEVLQKPFICHRKTKGGDLMLVHYEGYLEKDGSLFHSTHKHNNGQPIWFTLGILEALKGWDQGLKGMCVGEKRKLIIPPALGYGKEGKGKIPPESTLIFNIDLLEIRNGPRSHESFQEMDLNDDWKLSKDEVKAYLKKEFEKHGAVVNESHHDALVEDIFDKEDEDKDGFISAREFTYKHDEL"}, "B2": {"name": "recombinant human M48K FKBP22 (Met48Lys) (enzyme)", "chain": "B1 chain with M28K", "notes": "The mutation was found in a patient with kEDS; PDB 4MSP is the WT structure (parent); also called mutant FKBP22; source: E. coli BL21 (DE3), solubilised with 2 M urea, purified (Co2+-chelating column, enterokinase cleavage, Phenyl column)"}}, "key": {"[1]": {"target": "type X collagen (Homo sapiens) (UniProt Q03692)", "sequence (Q03692 19-680)": "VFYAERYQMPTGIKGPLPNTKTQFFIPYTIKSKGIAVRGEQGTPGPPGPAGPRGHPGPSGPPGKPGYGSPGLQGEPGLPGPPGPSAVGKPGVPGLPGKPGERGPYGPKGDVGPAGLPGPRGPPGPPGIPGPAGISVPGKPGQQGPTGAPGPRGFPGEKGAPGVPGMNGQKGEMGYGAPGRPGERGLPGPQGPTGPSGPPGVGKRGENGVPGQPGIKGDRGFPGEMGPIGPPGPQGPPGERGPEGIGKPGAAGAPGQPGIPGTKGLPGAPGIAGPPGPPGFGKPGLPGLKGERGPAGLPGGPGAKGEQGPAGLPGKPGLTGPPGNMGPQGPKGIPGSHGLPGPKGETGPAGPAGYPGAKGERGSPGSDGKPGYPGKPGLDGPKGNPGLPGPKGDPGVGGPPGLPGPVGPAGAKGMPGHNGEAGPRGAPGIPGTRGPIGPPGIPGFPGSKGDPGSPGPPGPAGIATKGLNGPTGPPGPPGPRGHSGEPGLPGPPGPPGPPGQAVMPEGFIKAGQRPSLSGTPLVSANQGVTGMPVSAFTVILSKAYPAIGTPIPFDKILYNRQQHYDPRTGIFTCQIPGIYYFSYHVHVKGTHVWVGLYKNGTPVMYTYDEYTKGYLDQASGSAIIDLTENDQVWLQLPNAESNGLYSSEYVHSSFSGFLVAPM", "details": "cited from earlier work"}, "[2]": {"target": "mouse type IV collagen (mouse)", "assay": "SPR; BIAcore X; collagens immobilised on CM5 chips by amide coupling, FKBP22 injected; 20 °C; HBS-P (10 mM Hepes pH 7.4, 150 mM NaCl, 0.005% Surfactant P20) with 1 mM CaCl2; flow 10 µL/min; steady-state affinity model for type IV collagen - WT FKBP22, Langmuir-binding model for type X collagen - M48K FKBP22"}, "[3]": {"target": "T1, human recombinant type X collagen (human, UniProt Q03692 19-680)", "T1 construct": "type X collagen, human, recombinant; source: 293 cells, purified as described previously", "T1 sequence (Q03692 19-680)": "as above", "assay": "SPR; BIAcore X; collagens immobilised on CM5 chips by amide coupling, FKBP22 injected; 20 °C; HBS-P (10 mM Hepes pH 7.4, 150 mM NaCl, 0.005% Surfactant P20) with 1 mM CaCl2; flow 10 µL/min; steady-state affinity model for type IV collagen - WT FKBP22, Langmuir-binding model for type X collagen - M48K FKBP22", "details": "both partners purified"}}, "note": "Numbering of substitutions follows the chain as printed. Numbers in names are those of the source.", "data": [{"molecule": "FKBP22 (from UniProt Q9NWM8)", "values": [{"measurement": "Kd", "setting": "[1]", "result": 43, "unit": "µM"}]}, {"molecule": "B1", "values": [{"measurement": "Kd", "setting": "[2]", "result": 310, "unit": "µM"}]}, {"molecule": "B2", "values": [{"measurement": "Kd", "setting": "[3]", "result": "5.3 ± 4", "unit": "µM"}]}]}
